Laboratory results: article PMC5170866 (Molecular Biology of the Cell, 2016)

Target: Recombinant His-tagged CYFIP2-N (aa 1–624) (mouse, UniProt Q5SQX6 1-624)
Experiment: pull-down

Chain of Recombinant His-tagged CYFIP2-N (aa 1–624) (Q5SQX6 1-624): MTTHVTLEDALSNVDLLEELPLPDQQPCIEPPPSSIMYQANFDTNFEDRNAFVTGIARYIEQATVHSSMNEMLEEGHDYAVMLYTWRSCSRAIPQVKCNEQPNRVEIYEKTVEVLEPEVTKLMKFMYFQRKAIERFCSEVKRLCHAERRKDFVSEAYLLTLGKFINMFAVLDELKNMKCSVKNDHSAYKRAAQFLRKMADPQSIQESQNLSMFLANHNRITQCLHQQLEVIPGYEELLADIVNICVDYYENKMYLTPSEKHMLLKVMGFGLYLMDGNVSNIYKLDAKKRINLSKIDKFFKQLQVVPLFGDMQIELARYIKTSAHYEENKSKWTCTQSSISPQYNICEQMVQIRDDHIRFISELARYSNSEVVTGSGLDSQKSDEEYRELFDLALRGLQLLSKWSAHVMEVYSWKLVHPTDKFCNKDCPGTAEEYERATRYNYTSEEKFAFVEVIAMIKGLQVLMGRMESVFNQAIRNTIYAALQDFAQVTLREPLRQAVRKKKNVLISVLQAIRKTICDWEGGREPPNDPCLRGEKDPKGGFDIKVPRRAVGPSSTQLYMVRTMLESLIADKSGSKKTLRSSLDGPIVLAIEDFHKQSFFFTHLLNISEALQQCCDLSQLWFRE

- binding result: binds
B1: C-terminus of retrolinkin (RTLN-C, aa 489–574) fused to GST (domain or fragment, mouse, UniProt Q8BHE4 489-574, looked up)
chain: CCMRRKKKTANPENNLSYWNNAITMDYFNRHAVELPREIQSLETSEDQLSEPRSPANGDYRDTGMVLVNPFCQETLFVGNDQVSEI
